Measurements reported in US20030224390A1, “Method of identifying conformation-sensitive binding peptides and uses thereof” (Karo Bio AB, priority 2000, published 2003).
Residue numbers refer to the chain shown, from its start.

Key:
estrogen receptor (ER) α = target: T1, estrogen receptor (ER) α (Homo sapiens, UniProt P03372); assay: Yeast two-hybrid screening of LXXLL peptide library, ligand induced β-galactosidase activity (FIG. 1, Table 501); format: cell-based; details: with and without estradiol
T1 construct: expressed in transfected cells; host or cells: Saccharomyces cerevisiae PJ69-α
T1 sequence (P03372 1-595): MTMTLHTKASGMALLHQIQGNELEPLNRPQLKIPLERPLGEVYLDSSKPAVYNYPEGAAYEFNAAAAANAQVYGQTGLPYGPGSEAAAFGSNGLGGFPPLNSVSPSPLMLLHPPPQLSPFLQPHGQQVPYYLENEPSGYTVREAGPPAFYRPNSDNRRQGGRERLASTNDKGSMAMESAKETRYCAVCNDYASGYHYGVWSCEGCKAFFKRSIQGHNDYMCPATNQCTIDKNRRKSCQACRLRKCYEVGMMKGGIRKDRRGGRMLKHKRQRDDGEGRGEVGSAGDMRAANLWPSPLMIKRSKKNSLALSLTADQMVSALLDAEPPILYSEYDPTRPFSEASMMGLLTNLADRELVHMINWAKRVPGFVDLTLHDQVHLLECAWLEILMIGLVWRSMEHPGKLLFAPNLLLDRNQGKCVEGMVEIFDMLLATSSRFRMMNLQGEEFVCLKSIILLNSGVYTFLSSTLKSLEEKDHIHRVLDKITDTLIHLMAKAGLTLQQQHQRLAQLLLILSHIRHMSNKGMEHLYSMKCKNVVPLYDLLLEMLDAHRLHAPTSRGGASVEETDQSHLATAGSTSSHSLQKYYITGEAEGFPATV
Source text: A directed peptide library (X5LXXLLX5, SEQ ID NO:264) containing the LXXLL motif (previously identified as common in peptides binding estrogen receptor) as a carboxy-terminal fusion to the Gal4 DNA binding domain was constructed with an overall complexity of […] independent peptides. The LXXLL motif library peptides were encoded by the degenerate DNA sequence (NNK)5TTA(NNK)2(TTA)2(NNK)5 (SEQ ID NO:265); TTA is the preferred Leu codon in yeast. NNK encodes a stop codon so a few of the peptides generated will be shorter than 15 a.a. The shortest interacting peptides will likely be 10-mers. This library was transformed into the Saccharomyces cerevisiae PJ69-α yeast strain expressing estrogen receptor (ER) α as a carboxy-terminal fusion to the Gal4 activation domain. […] Those colonies able to grow by inducing the integrated GAL4 driven HIS3 reporter were transferred into 0.25 ml of rich media in a 0.5 ml block.
Cells were pelleted by centrifugation, the media removed and the cells lysed with buffer containing 2.5% CHAPS (3-(3-Cholamidopropyl) dimethyl ammonio-1-propanesulfonate) detergent. A preliminary OD600 was determined to normalize β-galactosidase activity of each well with cell density. […] Yeast clones that generated a value equal to or greater than 0.5 were verified using the same method. Verified clones were then subjected to a final test of ligand induced β-galactosidase activity. […] Ten clones displaying the greatest ligand induced β-galactosidase activity were studied further.
Plasmids containing the peptides were isolated from the yeast cells and the amino acid sequences (Table 501) deduced by DNA sequencing of the library inserts. In Table 501, the underlined sequence is encoded by vector DNA, and the “*” represents the endogenous stop codon of the vector, and is downstream of the cloning site. Several peptides contain the vector-encoded LDLQPS (SEQ ID NO:266) sequence. B5H10 is believed to be the result of a double insert, with the second part being encoded by the complementary sequence. Peptides B1A1 and B1G8 were shorter than the other isolates because the clones encoding them carry a premature stop codon, which is inherent in the NNK library. Because of a frame shift, neither peptide B6A1 nor B3E2 contained the sequence encoded by vector DNA.

ERβ = ERβ (Homo sapiens, UniProt Q92731); assay: Phage ELISA fingerprint: peptide binding to immobilized ER β with modulator present (Table 14B)
Chain of ERβ (Q92731 whole entry, species assumed, the tested form may be a part): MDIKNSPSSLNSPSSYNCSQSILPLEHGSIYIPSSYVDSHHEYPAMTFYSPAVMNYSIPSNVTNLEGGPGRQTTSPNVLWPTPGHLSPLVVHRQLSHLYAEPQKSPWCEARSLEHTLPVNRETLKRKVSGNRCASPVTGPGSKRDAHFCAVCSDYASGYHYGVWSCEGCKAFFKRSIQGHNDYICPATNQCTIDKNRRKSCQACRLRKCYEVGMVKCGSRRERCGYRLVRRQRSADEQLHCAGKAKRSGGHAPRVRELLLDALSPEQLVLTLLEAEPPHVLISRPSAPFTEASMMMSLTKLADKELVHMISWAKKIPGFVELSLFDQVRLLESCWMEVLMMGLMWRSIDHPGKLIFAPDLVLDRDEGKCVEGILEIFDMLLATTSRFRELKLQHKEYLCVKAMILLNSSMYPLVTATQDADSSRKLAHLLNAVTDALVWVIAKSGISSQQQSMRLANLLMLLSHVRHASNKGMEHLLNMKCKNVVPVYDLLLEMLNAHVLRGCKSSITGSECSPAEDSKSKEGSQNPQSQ

[1] = target: T2, Gal4 transcriptional activation domain (AD) fused in frame with AR (pGAD-C2) (yeast), P10275; assay: cell-based or functional assay
T2 chain: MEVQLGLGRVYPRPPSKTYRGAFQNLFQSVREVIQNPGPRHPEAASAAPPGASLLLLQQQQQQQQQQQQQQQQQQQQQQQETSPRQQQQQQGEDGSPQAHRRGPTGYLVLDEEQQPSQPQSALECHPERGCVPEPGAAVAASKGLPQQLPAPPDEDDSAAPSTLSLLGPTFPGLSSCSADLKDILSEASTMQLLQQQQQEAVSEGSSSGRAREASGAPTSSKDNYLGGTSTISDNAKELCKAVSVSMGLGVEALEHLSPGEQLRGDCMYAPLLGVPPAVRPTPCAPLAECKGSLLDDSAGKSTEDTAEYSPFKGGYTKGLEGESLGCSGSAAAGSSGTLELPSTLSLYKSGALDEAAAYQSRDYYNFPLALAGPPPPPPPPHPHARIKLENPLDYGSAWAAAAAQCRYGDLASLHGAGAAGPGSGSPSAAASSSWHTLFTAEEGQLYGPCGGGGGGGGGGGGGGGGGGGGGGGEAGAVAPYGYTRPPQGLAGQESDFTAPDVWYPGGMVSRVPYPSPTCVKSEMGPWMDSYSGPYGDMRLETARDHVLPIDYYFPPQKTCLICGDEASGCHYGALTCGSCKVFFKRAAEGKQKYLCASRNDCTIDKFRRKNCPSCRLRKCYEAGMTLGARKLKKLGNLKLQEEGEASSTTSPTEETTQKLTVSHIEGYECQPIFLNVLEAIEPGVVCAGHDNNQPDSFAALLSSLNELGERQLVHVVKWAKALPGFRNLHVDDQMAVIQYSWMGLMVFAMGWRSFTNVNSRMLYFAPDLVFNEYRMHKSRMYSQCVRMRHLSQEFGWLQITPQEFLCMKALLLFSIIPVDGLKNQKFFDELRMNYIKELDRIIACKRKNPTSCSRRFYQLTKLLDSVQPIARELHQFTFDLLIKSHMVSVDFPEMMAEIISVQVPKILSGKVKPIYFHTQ

[2] = target: T3, pVP16-AR (VP16 activation domain fused to androgen receptor), P10275; assay: cell-based or functional assay
T3 chain: T2 chain

[3] = target: T4, estrogen receptor (ER) α as a carboxy-terminal fusion to the Gal4 activation domain (yeast, UniProt P03372 1-595, limits assumed); assay: cell-based or functional assay
T4 sequence (looked up): T1 sequence (P03372 1-595)

## EFFRATHLLRLLRTDSALDLQPS* [B6F3]
Estrogen receptor (ER) α
  Fold Induction (ligand induced β-galactosidase activity): 3

## SSEACVGRWMLCEQLGVSR [12Bβ]
ERβ; nafoxidine (10 μM)
  Class Specific Fingerprint on ERβ: peptide binding, Nafoxidine present: 5

## EFCPVGLLVHLLMQ* [B1A1]
Estrogen receptor (ER) α
  Fold Induction (ligand induced β-galactosidase activity): 11

## EFSGVPILHMLLMLPSSLDLQOPS* [B4F6]
Estrogen receptor (ER) α
  Fold Induction (ligand induced β-galactosidase activity): 5

## EFTGSRLLLKLLRFPDSSTCSQA [B6A1]
Estrogen receptor (ER) α
  Fold Induction (ligand induced β-galactosidase activity): 3.5

## EFTSVSRLVTLLLQ* [B1G8]
Estrogen receptor (ER) α
  Fold Induction (ligand induced β-galactosidase activity): 6

## EFFRLRRLDRLLQDSFLLDLQPS* [B2G1]
Estrogen receptor (ER) α
  Fold Induction (ligand induced β-galactosidase activity): 12

## EFSPPSSLLALLLGGKSLEPLPIRYKNVKRQFTSNSRGSVDLQPS [B5H10]
Estrogen receptor (ER) α
  Fold Induction (ligand induced β-galactosidase activity): 4.5

## EFGGSVLLRELLCCYDALEPTTTR [B3E2]
Estrogen receptor (ER) α
  Fold Induction (ligand induced β-galactosidase activity): 3

## EFGCSAILRYLLRSPRDLDLQPS* [B5A2]
Estrogen receptor (ER) α
  Fold Induction (ligand induced β-galactosidase activity): 2.5

## SSNHQSSRLIELLSR [#4 ER./E2]
ERβ; 4-OH tamoxifen (1 μM)
  Class Specific Fingerprint on ERβ: peptide binding, 4-OH Tamoxifen present: 0
ERβ; ICI 182,780 (1 μM)
  Class Specific Fingerprint on ERβ: peptide binding, ICI 182,780 present: 0
ERβ; clomiphene (10 μM)
  Class Specific Fingerprint on ERβ: peptide binding, Clomiphene present: 0
ERβ; raloxifene (1 μM)
  Class Specific Fingerprint on ERβ: peptide binding, Raloxifene present: 0

B1: B8H3, P04386 1-147 (peptide)
chain: MKLLSSIEQACDICRLKKLKCSKEKPKCAKCLKNNWECRYSPKTKRSPLTRAHLTEVESRLERLEQLFLLIFPREDLDMILKMDSLQDIKALLTGLFVQDNVNKDAVTDRLASVETDMPLTLRQHRISATSSSEESSNKGQRQLTVSEFHSRLRVEVVSWGIGSTCSQANSGRISYDL
modifications: not checked
[1]
  Fold induction, yeast two-hybrid: 22 fold
  β-galactosidase activity, yeast two-hybrid; CPA: 0.393
  β-galactosidase activity, yeast two-hybrid; DHT: 3.81
  β-galactosidase activity, yeast two-hybrid; No Lig: 0.174
  β-galactosidase activity, yeast two-hybrid; RU: 0
[2]
  normalized luciferase activity, mammalian two-hybrid; CYP.: 10.5
  normalized luciferase activity, mammalian two-hybrid; DHT: 11.6
  normalized luciferase activity, mammalian two-hybrid; MPA: 11.3
  normalized luciferase activity, mammalian two-hybrid; RU486: 3.88
  normalized luciferase activity, mammalian two-hybrid; no compound: 0.132

B2: B8E9, P04386 1-147 (peptide)
chain: MKLLSSIEQACDICRLKKLKCSKEKPKCAKCLKNNWECRYSPKTKRSPLTRAHLTEVESRLERLEQLFLLIFPREDLDMILKMDSLQDIKALLTGLFVQDNVNKDAVTDRLASVETDMPLTLRQHRISATSSSEESSNKGQRQLTVSEFQQCMCAEVKSWLGGSLDLQPS
modifications: not checked
[1]
  Fold induction, yeast two-hybrid: 4 fold
  β-galactosidase activity, yeast two-hybrid; CPA: 0.563
  β-galactosidase activity, yeast two-hybrid; DHT: 1.75
  β-galactosidase activity, yeast two-hybrid; No Lig: 0.499
  β-galactosidase activity, yeast two-hybrid; RU: 0.8
[2]
  normalized luciferase activity, mammalian two-hybrid; CYP.: 16
  normalized luciferase activity, mammalian two-hybrid; DHT: 19.6
  normalized luciferase activity, mammalian two-hybrid; MPA: 18.5
  normalized luciferase activity, mammalian two-hybrid; RU486: 10.2
  normalized luciferase activity, mammalian two-hybrid; no compound: 0.209

B3: B6F3 (peptide)
chain: MKLLSSIEQACDICRLKKLKCSKEKPKCAKCLKNNWECRYSPKTKRSPLTRAHLTEVESRLERLEQLFLLIFPREDLDMILKMDSLQDIKALLTGLFVQDNVNKDAVTDRLASVETDMPLTLRQHRISATSSSEESSNKGQRQLTVSEFFRATHLLRLLRTDSALDLQPS
[3]
  fold induction of β-galactosidase by estradiol, yeast two-hybrid: 3 fold

B4: B2G1 (peptide)
chain: B3 chain with A152L, T153R, H154R, L156D, R160Q, T161D, D162S, S163F, A164L
[3]
  fold induction of β-galactosidase by estradiol, yeast two-hybrid: 12 fold

B5: B4F6 (peptide)
chain: MKLLSSIEQACDICRLKKLKCSKEKPKCAKCLKNNWECRYSPKTKRSPLTRAHLTEVESRLERLEQLFLLIFPREDLDMILKMDSLQDIKALLTGLFVQDNVNKDAVTDRLASVETDMPLTLRQHRISATSSSEESSNKGQRQLTVSEFSGVPILHMLLMLPSSLDLQPS
[3]
  fold induction of β-galactosidase by estradiol, yeast two-hybrid: 5 fold

B6: B5A2 (peptide)
chain: B5 chain with S150G, G151C, V152S, P153A, H156R, M157Y, M160R, L161S, S163R, S164D
[3]
  fold induction of β-galactosidase by estradiol, yeast two-hybrid: 2.5 fold

B7: B6C4 (peptide)
chain: MKLLSSIEQACDICRLKKLKCSKEKPKCAKCLKNNWECRYSPKTKRSPLTRAHLTEVESRLERLEQLFLLIFPREDLDMILKMDSLQDIKALLTGLFVQDNVNKDAVTDRLASVETDMPLTLRQHRISATSSSEESSNKGQRQLTVSEFDRSSILVSLLSMVETLDLQPS
[3]
  fold induction of β-galactosidase by estradiol, yeast two-hybrid: ≥ 2 fold

B8: B1A1 (peptide)
chain: MKLLSSIEQACDICRLKKLKCSKEKPKCAKCLKNNWECRYSPKTKRSPLTRAHLTEVESRLERLEQLFLLIFPREDLDMILKMDSLQDIKALLTGLFVQDNVNKDAVTDRLASVETDMPLTLRQHRISATSSSEESSNKGQRQLTVSEFCPVGLLVHLLMQ
[3]
  fold induction of β-galactosidase by estradiol, yeast two-hybrid: 11 fold

B9: B1G8 (peptide)
chain: B8 chain with C150T, P151S, G153S, L154R, H157T, M160L
[3]
  fold induction of β-galactosidase by estradiol, yeast two-hybrid: 6 fold

B10: B5H10 (peptide)
chain: MKLLSSIEQACDICRLKKLKCSKEKPKCAKCLKNNWECRYSPKTKRSPLTRAHLTEVESRLERLEQLFLLIFPREDLDMILKMDSLQDIKALLTGLFVQDNVNKDAVTDRLASVETDMPLTLRQHRISATSSSEESSNKGQRQLTVSEFSPPSSLLALLLGGKSLEPLPIRYKNVKRQFTSNSRGSVDLQPS
[3]
  fold induction of β-galactosidase by estradiol, yeast two-hybrid: 4.5 fold

B11: B6A1 (peptide)
chain: MKLLSSIEQACDICRLKKLKCSKEKPKCAKCLKNNWECRYSPKTKRSPLTRAHLTEVESRLERLEQLFLLIFPREDLDMILKMDSLQDIKALLTGLFVQDNVNKDAVTDRLASVETDMPLTLRQHRISATSSSEESSNKGQRQLTVSEFTGSRLLLKLLRFPDSSTCSQA
[3]
  fold induction of β-galactosidase by estradiol, yeast two-hybrid: 3.5 fold

B12: B3E2 (peptide)
chain: MKLLSSIEQACDICRLKKLKCSKEKPKCAKCLKNNWECRYSPKTKRSPLTRAHLTEVESRLERLEQLFLLIFPREDLDMILKMDSLQDIKALLTGLFVQDNVNKDAVTDRLASVETDMPLTLRQHRISATSSSEESSNKGQRQLTVSEFGGSVLLRELLCCYDALEPTTTR
[3]
  fold induction of β-galactosidase by estradiol, yeast two-hybrid: 3 fold
